assay: soluble fraction after stress (log2 fold change); higher = more stays soluble; pooled small domains, quantitative proteomics; conditions: stress: 75 degC
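Further: 20 min heating vs room temperature control held 20 min.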

Row | Sequence | soluble fraction (log2)
1 | HMNKSYTVPDVRGMTVEEAQEAEGVKDIFTVHVQGTRKTDEYQPGQIVEQDPIAGRTRKSNFVIEVYVAE | -0.34
2 | HMNKTQLQIEDEVLKPLIAEIFSKSKGRFGARKIRSKLMGLGYTASERRILRLMKELGLSSAG | -1.19
3 | HMNKTVKIPNVSNLSREDAESVLKENGISVNSEVKQIESDTIEKGKVVKTDPSIGTSVKKGRSITIYVSSG | 0.544
4 | HMNKWMQLASEEDKKLFNEAPKEIQDSITESAKFFDIRTKADVDTFWANTGLRQMKQQAMLNESFVNEY | -0.0697
5 | HMNLDMVINKIGIVTEDIKQDKIGEVKVLGKRWSAYSNTELKKDEKVKILSIDGVKLKVEKI | -0.135
6 | HMNLGAHVYWRNHRAYGDFREYEDVGGGREALALPGSTWGTKDPRVAQALFAARLTEFQEARVGR | -0.989
7 | HMNLGVIYSLKAEVRSEPNTFSTRLFEVHEGLKVSINQLENDWVEIELLDGKTGWISNDQIRLI | -2.61
8 | HMNLIFFSENLSTFRKEKGWTQSELAEKLGVKANTISNYEKGISTPDYKIIAKLRELFEMPTDVLLYSNLS | -1.86
9 | HMNLLDYDFFEKMSSKEQEEIVEKVYIDFLNKSTGTNSPFYLKLFEKGKKSYIVNWLNENNF | -1.77
10 | HMNLLSPREKQSLTLYASGLTLREVASELKLSPNSVGKFISRGKFKLNKSGAIVNSKTSIYLELKKRNLI | -0.147
11 | HMNLNESVELGQELLSQALAQLGIRGELSPSTIDKLLAESSAKSMEELYADIGIGKRMPALVARHIFGLMD | -0.627
12 | HMNLQAYQSVLDKLNEEYGTTFRFPTEEELHEVGLTNTVDPRTATVSATEFEKYMRPIAERISQANL | -0.205
13 | HMNLSAREWTSADGSRTFQGELTGFQDGKVKVRRSDGKSLVFAIELLSESDQQFIKTNQLVIAKKDED | 0.0766
14 | HMNLYHALDQQGEVYLTIPPRQSGRGKVTLMIDGRVREMDAMTDGDALKTGSKVRVTEILDENALKVEAM | 0.215
15 | HMNMAEETLDTAAKILKAAEEEFMEKGYGNAKMMSIAARAGVSHSMLHYYYRSKGKLFQMIFDEKA | -1.41
16 | HMNMAEQGISLDSEAGKARFVSQALPLLKQLPDGVFKQRMLNQLADRVEVTADFIAQQLAQLKAA | -0.0979
17 | HMNMAVELEDGTQIFVFSEDGEFAGKRAVIADEEGRPTEENAPAGTHTLRDGRSIVVGEGGVIESVVET | -0.0672
18 | HMNMEYQKAINHIVQMVKDGQLIVGSKIPSERDLSESLGIGRNSTREAISILRGMGLVESRHGSGNYIAKD | -0.2
19 | HMNMGEKIRSLIGQFGVTSEDLKNLSVANLLIRMNQEAGDSKTKGILASLLETVNKAGVGNLTPDALGIK | -0.164
20 | HMNMLGEQVRNIRKSRGFTLKALAEQTGLSIGYISQIERNLTDPSLSTLRKISAALDVPTYLFMG | -2.13
21 | HMNMLGSNIKYLRNRHKLSQQELSEKLGVPRSSLSDYERGHTQVGLDSLIKLADIFDVKIDDLLRSNLSHR | -0.439
22 | HMNMPHEIDANFISSLGRLIDNHGKNYGDFQIFREMFLDYFPRFDELSSNNKEKINRRLYKFFETLFG | -2.09
23 | HMNMVEESVKKSSQWAVFEPNTISTWVKIQAMIENYLYQKWKEGALAGAKPEHAFFVKVGLGETM | 0.258
24 | HMNNEISINGNKIYFNKNISKVFIYDISGKLIKHKNNFNNNFIDLSEFNSAFYIIKALDINENYTTKKIFL | -1.69
25 | HMNNFTPEHLEKDIEGSLFFRRLKETAREEPGSLTVAQKDFIQMWHDQADGVYTLRQVFVQTAFDHVRSL | 0.315
26 | HMNNFTQSALDTIDGIGKRRKKLLLNHFGSVKLIENASIEDIKKIDGISDLVANKIYNFFNKN | -1.04
27 | HMNNGAEIGAEIRSLRKARGLTLEDLAAKIGRSVGYISQVERGISPLTIPNLKAIAEVLGVGINWFFRGEA | -1.15
28 | HMNNILNYTIAELMEILKIDDLETENVINSSNNLINKSINENNFPLAEFYEDVKNNLIEFIETFDS | -0.771

Row | Sequence | soluble fraction (log2)
29 | HMNNLELSEEEKSVLTIIEKEGLIELDKLKTKLELSNKKWDKTLKFLTKNKLAKVVKNDNGLFVEL | -0.158
30 | HMNNLLEDIKARLMAQAEAGGHIDTETELAEHFGVTRYRIRKELDLLSQMGLLRRQPKNGIEVLTV | -0.171
31 | HMNNLNDIIEIIRIYAKNYARNNPSWNHSELINRIRDKALGEAEDYNIRLSEEDLALITELSLRGL | -0.713
32 | HMNNMVNTLLKLLAEQDVLRGIVRRFTPSSVFVFLQNEEVEVELPLQGRSLAPGQLVELTQEGASVALKRL | -0.936
33 | HMNNPLLDKVYQLMKQNNITEEEIVRAVAMKGYFPDDMKLGDYPDDFIDGVLIGAWDQIKQFIINNISPFK | -0.281
34 | HMNNSDIDITVGKNSISINNPNRTNIIIYSSNGMLIDSSKNASYKRNLPSGIYIVKSGSSTHKVIV | -0.905
35 | HMNNTIKFFVSQDDDSTRLDVFLSKKIENLTRSNIKKFINLNNVKINKATINSPSKKVKLYDEIEIKFSS | -2.46
36 | HMNNTIKFSVDSQNSGKRLDIFLTENIKNYTRSFLKKLIENRQVKLNNNFIISPSERVKFKDQININILQ | -1.8
37 | HMNNVDIMGRMVYDDQHREVINFGKYKGVLVTEVLKKDPGYFSWIQQGDFPSDMKRIMMAIKLRM | -2.61
38 | HMNNVDQLIEQYKTLPGGLLPLLHAIKHALGYIPESTVGSIAKGFNLSRAEVHGVISFYHDFNTQP | 0.07
39 | HMNPAYTDSRMKTFLEELPVMKASLSQKHVTRFLVWQEYIGRHPDGYGKSQFFYHLKQNLVAAKG | -0.391
40 | HMNPDTERIREFVAVSLKNRKVATSGEIQNMIVKQFKNFKLKSHGYSNMKSFLSSIDKIQLNSNGKYSLK | -1.89
41 | HMNPEDDLLKAIIMKYFSNAQVQVDKNVIEYLLKRVDRDYQNLYNILEKINILSLQRKSKITTHLIRDIM | -0.414
42 | HMNPFLELTEREMDVLRLIAIGRNNQEIASELVISEKTVKTHITNIFSKLHFKDRTQAAAYAWQSGIVR | -1.73
43 | HMNPHGVAIIDVRKGKASTLRSLATSVRSLGEWDQLKIPIFNLESLTSLVLWHGLDAIVKEPESLQSNLIL | -0.513
44 | HMNPHIQFWSLLRRQPDYNSAYKDELKAMFVWQWSGEKTESLNEFYKTDPYRYKSMLMDMRNRAL | -3.33
45 | HMNPIDAHVGARVRLRRMLIGMSQEKLGELLGVTFQQIQKYEKGANRIGASRLYEVSRVLDVPVQYFFDDM | -3.66
46 | HMNPLDGTSVHPESYEAAEKLLKKQGFSLEDISGGKLTGLSLTIKDYARLAKELEIGEITLRDIVKELEK | -0.132
47 | HMNPLHYKAAHWVREGLFDDLKSFVELETRINSIFEEKDRGDVFEIFIEGYRSFSKWRALVLRLA | -0.365
48 | HMNPNEVQIPDLVNKTEEEAEQILKDLKLKLVVKSEEYDENIEKGKIISQDPTYKENYKIKEHSEISVIIS | 0.586
49 | HMNPNPFVNLSPRELEVLNLLFKGYGVLEISNELNIGQTTASTFKSRILKKTSTHSVVELIKLAEQYGFIP | -0.85
50 | HMNPNPYIVLGVDKSMPFGEIKKVYQRKRREFHPDSLVAKGLPDELLQKAQDKFIAIQEAYKSIEKNQV | 0.44
51 | HMNPNSIDEKLKLLSNREKEVAILVLKKLSYFEISEQLNITIRTVKAHTKNIYEKFNVSNRLAFLLLFN | -0.00667
52 | HMNPSAFSEYSFELLQSALLKKKIDENLSNQTIARDAGVSEAFVQKVLTNNVKRPSVKNRVRMISYLGLD | -1.47
53 | HMNPSFTMGTRIKEYIDAHYLEDLKLADIAEALHINLYYLSHTFKDLTGSSPMQYIIRRRIEE | -0.857
54 | HMNPSPYLRRHLSGDWGDLDEDDRRSNDAALASGEARLLSSYQVDPDLKLWIITEWDRSVTTLLLPSE | -0.0994
55 | HMNPTLPYGFAKRHGVILLEAGEVAVVGLREGADPAALIETRRALGRPLRVEPLDQATFDRRLSQVYA | -0.512

From the domain aggregation screens of Martell et al. (2025)
